# Test results as given in patent US20190382474A1 (SURFACE ONCOLOGY, published 2019).
# Positions count from the first letter of the chain named. Several values for one entry are separate records, joined by “and”; a condition that tells them apart may be missing. Equal values may be shown once.
# B1: SRF414 (antibody, V domains shown)
# VH: QVQLQQWGAGLLKPSETLSLTCAVYGGSFSRYYWSWIRQPPGKGLEWIGSIDYSGSTEYNPSLKSRVTISVDTSKNQFSLKLSSVTAADTAVYYCARDGVYYDSSDLGFDIWGQGTMVTVSS
# VL: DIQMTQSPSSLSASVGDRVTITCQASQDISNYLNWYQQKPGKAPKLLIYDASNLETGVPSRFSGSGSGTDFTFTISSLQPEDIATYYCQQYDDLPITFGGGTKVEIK
# notes: also called SRF414-A; SRF414-B
# B2: SRF573 (antibody, V domains shown)
# VH: QVQLVQSGAEVKKPGSSVKVSCKASGGTFSSYAISWVRQAPGQGLEWMGGIIPIFGTANYAQKFQGRVTITADESTSTAYMELSSLRSEDTAVYYCARSYYSSRWHYYYYMDVWGKGTTVTVSS
# VL: DIQMTQSPSSVSASVGDRVTITCRASQGISSWLAWYQQKPGKAPKLLIYAASNLQSGVPSRFSGSGSGTDFTLTISSLQPEDFATYYCQQADDLPLTFGGGTKVEIKR
# B3: SRF541 (antibody, V domains shown)
# VH: QVQLQESGPGLVKPSETLSLTCTVSGGSISSYYWSWIRQPPGKGLEWIGSIYYSGSTNYNPSLKSRVTISVDTSKNQFSLKLSSVTAADTAVYYCAREVDRDDVAFDIWGQGTMVTVSS
# VL: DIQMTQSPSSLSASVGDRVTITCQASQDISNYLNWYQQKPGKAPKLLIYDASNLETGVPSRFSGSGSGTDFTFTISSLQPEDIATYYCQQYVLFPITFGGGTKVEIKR
# B4: SRF583 (antibody, V domains shown)
# VH: QLQLQESGPGLVKPSETLSLTCTVSGGSISSSSYYWGWIRQPPGKGLEWIGSISYSGSTYYNPSLKSRVTISVDTSKNQFSLKLSSVTAADTAVYYCAREEYSFSYLDYWGQGTTVTVSS
# VL: B2 VL with D92L, D93L, L94F, L96P
# B5: Ab7.1 (antibody, human IgG1, kappa)
# heavy: not shown
# light: DIQMTQSPASLSASVGETVTITCRASENIYSYLAWYQQKQGKSPQLLVYNAETLTEGVPSRFSGSGSGTQFSLKINSLQPEDFGNYYCQHHYGTPLTFGAGTKLDLKRTVAAPSVFIFPPSDEQLKSGTASVVCLLNNFYPREAKVQWKVDNALQSGNSQESVTEQDSKDSTYSLSSTLTLSKADYEKHKVYACEVTHQGLSSPVTKSFNRGEC
# notes: human IgG1/kappa chimera from HEK293 EBNA cells; also called chimeric Ab7.1 antibody; chimeric antibody
# B6: Ab7.2 (antibody, human IgG1, kappa, V domains shown)
# VH: EVKLVESGGGLVQPGGSLKLFCAASGFTFTSYSMSWVRQTPEKRLEWVAYISYDGGSAYYPDTVKGRFSISRDNAKKTLYLQMSSLKSEDTAMYYCARHGDYDDDDAMDYWGQGTSVTVSS
# VL: DIQMTQSPSSLSASVGDRVTITCRASENIYSYLAWYQQKQGKAPKLLVYNAETLTEGVPSRFSGSGSGTDFTLTISSLQPEDFANYYCQHHYGTPLTFGQGTKLDIKR
# notes: human IgG1/kappa
# B7: Ab7.3 (antibody, human IgG1, kappa, V domains shown)
# VH: B6 VH with K19R, F21S, T40A, E42G, R44G, S69T, A75S
# VL: DIQMTQSPASLSASVGETVTITCRASENIYSYLAWYQQKQGKSPQLLVYNAETLTEGVPSRFSGSGSGTQFSLKINSLQPEDFGNYYCQHHYGTPLTFGAGTKLDLKR
# notes: human IgG1/kappa
# B8: Ab7.17 (antibody, human IgG1, kappa, V domains shown)
# VH: EVQLVESGGGLVQPGGSLRLSCAASGFTFTSYSMSWVRQAPGKGLEWVAYISYDGGSAYYPDTVKGRFTISRDNSKNTLYLQMNSLRAEDTAVYYCARHGDYDDDDAMDYWGQGTLVTVSS
# VL: B6 VL with Q40P, D105E
# notes: human IgG1/kappa
# B9: Ab7.4 (antibody, human IgG1, kappa, V domains shown)
# VH: B6 VH with K19R, F21S, T40A, E42G, R44G, S69T, A75S
# VL: B6 VL
# notes: human IgG1/kappa
# B10: Ab7.5 (antibody, human IgG1, kappa, V domains shown)
# VH: B6 VH with K19R, F21S, T40A, E42G, R44G, S69T, A75S
# VL: B6 VL with Q40P, D105E
# notes: human IgG1/kappa
# B11: Ab7.8 (antibody, human IgG1, kappa, V domains shown)
# VH: B8 VH with N84S, R87K, A88S, V93M
# VL: B6 VL
# notes: human IgG1/kappa
# B12: Ab7.9 (antibody, human IgG1, kappa, V domains shown)
# VH: B8 VH with N84S, R87K, A88S, V93M
# VL: B6 VL with Q40P, D105E
# notes: human IgG1/kappa
# B13: Ab7.10 (antibody, human IgG1, kappa, V domains shown)
# VH: B8 VH with N84S, R87K, A88S, V93M
# VL: B6 VL with Q40P, N85T, D105E
# notes: human IgG1/kappa
# B14: Ab7.12 (antibody, human IgG1, kappa, V domains shown)
# VH: B8 VH with Q3K, N77K
# VL: B6 VL
# notes: human IgG1/kappa
# B15: Ab7.13 (antibody, human IgG1, kappa, V domains shown)
# VH: B8 VH with Q3K, N77K
# VL: B6 VL with Q40P, D105E
# notes: human IgG1/kappa
# B16: Ab7.14 (antibody, human IgG1, kappa, V domains shown)
# VH: B8 VH with Q3K, N77K
# VL: B6 VL with Q40P, N85T, D105E
# notes: human IgG1/kappa
# B17: Ab7.16 (antibody, human IgG1, kappa, V domains shown)
# VH: B8 VH
# VL: B6 VL
# notes: human IgG1/kappa
# Molecular target: T1, recombinant human IL-27 (human, UniProt Q14213 21-229; Q8NEV9 29-243)
# T1 construct: Bought from R&D Systems (Cat. 2526-IL); also called hIL-27; rhIL-27
# T1 sequence 1: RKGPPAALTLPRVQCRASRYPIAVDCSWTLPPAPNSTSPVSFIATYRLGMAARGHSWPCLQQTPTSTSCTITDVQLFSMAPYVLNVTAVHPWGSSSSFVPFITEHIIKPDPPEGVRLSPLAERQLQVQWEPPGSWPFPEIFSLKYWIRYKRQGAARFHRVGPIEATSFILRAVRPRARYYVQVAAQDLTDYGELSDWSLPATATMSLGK
# T1 sequence 2: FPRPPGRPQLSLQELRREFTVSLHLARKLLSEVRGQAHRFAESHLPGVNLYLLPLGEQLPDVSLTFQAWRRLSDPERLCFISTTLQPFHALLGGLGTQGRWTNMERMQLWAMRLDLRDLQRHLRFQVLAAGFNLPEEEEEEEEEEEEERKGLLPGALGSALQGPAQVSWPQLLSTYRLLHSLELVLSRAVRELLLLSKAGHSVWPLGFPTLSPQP
# Assay: column 'Affinity hIL-27 (M)', property (i); method not given, paragraph 885 names SPR (BIACORE 2000)
row,Binder,Kd [nM]
1,B1,0.52
2,B2,0.74
3,B3,94.4
4,B4,1.98

# Molecular target: T1, recombinant human IL-27
# Assay: SPR, hIL-27 on CM5 chip, bivalent analyte model (ka1)
# Description: (§1) The antibodies were further characterized by surface plasmon resonance (SPR). Kinetic experiments were performed on a Biacore T200 (GE Healthcare, Uppsala, Sweden). All experiments were run at 25° C. with HBS-P+ running buffer (pH 7.4) (GE Healthcare, Little Chalfont, UK) using hIL-27 (R&D Systems, Abingdon, UK). Human IL-27 (hIL-27) antigen was captured on a CM5 chip to ˜16 RU. Immobilization was carried out at a protein concentration of 1 μg/mL in 10 mM acetate buffer pH 5.0. A three point, three-fold dilution range from 3.3 nM to 30 nM of antibody diluted in HBS-P+ buffer without regeneration between each concentration was used. The association phase for the three injections of increasing concentrations of antibody was monitored for 75 seconds each time and a single dissociation phase was measured for 250 seconds following the last injection of antibody. Regeneration of the hIL-27 surface was conducted using a single injection of 2M MgCl₂ for 120 s. Multiple repeats (n=4) of the chimeric antibody were performed throughout the assay to check the stability of the surface and analyte over the kinetic cycles.
# (§2) Both 1:1 binding and bivalent analyte models were used to analyze the data due to the bivalent nature of the antibody. The results from the 1:1 binding model analysis are summarized in Table 4 and results from the bivalent analyte model are summarized in Table 5.
row,Binder,kon
1,B5,670000 M⁻¹ s⁻¹
2,B6,700000 M⁻¹ s⁻¹
3,B7,750000 M⁻¹ s⁻¹
4,B8,580000 M⁻¹ s⁻¹
5,B9,720000 M⁻¹ s⁻¹ and 710000 M⁻¹ s⁻¹
6,B10,680000 M⁻¹ s⁻¹
7,B11,580000 M⁻¹ s⁻¹
8,B12,590000 M⁻¹ s⁻¹
9,B13,600000 M⁻¹ s⁻¹
10,B14,750000 M⁻¹ s⁻¹
11,B15,740000 M⁻¹ s⁻¹
12,B16,700000 M⁻¹ s⁻¹
13,B17,570000 M⁻¹ s⁻¹

# Molecular target: T1, recombinant human IL-27
# Assay: SPR, hIL-27 on CM5 chip, bivalent analyte model
# Description: as §1, §2
Binder,ka2,kd2 [s⁻¹]
B5,0.021 1/RUs,0.046
B6,0.035 1/RUs,0.087
B7,0.029 1/RUs,0.063
B8,0.039 1/RUs,0.09
B10,0.028 1/RUs,0.068
B11,0.064 1/RUs,0.15
B12,0.043 1/RUs,0.11
B13,0.084 1/RUs,0.2
B14,0.11 1/RUs,0.29
B15,0.02 1/RUs,0.053
B16,0.039 1/RUs,0.099
B17,0.04 1/RUs,0.091

# Molecular target: T1, recombinant human IL-27
# Assay: SPR (Biacore T200), hIL-27 on CM5 chip, single cycle, 1:1 model
# Description: as §1, §2
Binder,Kd,Relative KD to Ab7.1,koff [s⁻¹],kon [M⁻¹ s⁻¹]
B5,1 nM,1,0.0015,1.4e+06
B6,1.2 nM,1.2,0.0018,1.5e+06
B7,0.96 nM,0.9,0.0015,1.5e+06
B8,1.5 nM,1.5,0.0019,1.3e+06
B9,1.2 nM and 1.3 nM,1.2,0.0018,1.5e+06
B10,1.2 nM,1.2,0.0018,1.5e+06
B11,1.5 nM,1.4,0.0018,1.3e+06
B12,1.5 nM,1.5,0.0019,1.3e+06
B13,1.4 nM,1.4,0.0018,1.3e+06
B14,1.2 nM,1.2,0.0018,1.5e+06
B15,1.2 nM,1.2,0.0018,1.5e+06
B16,1.2 nM,1.2,0.0018,1.5e+06
B17,1.5 nM,1.4,0.0018,1.3e+06

# Molecular target: T1, recombinant human IL-27
# Assay: SPR, hIL-27 on CM5 chip, bivalent analyte model (kd1)
# Description: as §1, §2
row,Binder,koff
1,B5,0.0022 s⁻¹
2,B6,0.0027 s⁻¹
3,B7,0.0022 s⁻¹
4,B8,0.0029 s⁻¹
5,B9,0.0026 s⁻¹ and 0.0025 s⁻¹
6,B10,0.0027 s⁻¹
7,B11,0.0027 s⁻¹
8,B12,0.0028 s⁻¹
9,B13,0.0025 s⁻¹
10,B14,0.0026 s⁻¹
11,B15,0.0026 s⁻¹
12,B16,0.0026 s⁻¹
13,B17,0.0027 s⁻¹
